The text below walks through data of patent publication US20050287150A1 (UNIVERSITY OF MASSACHUSETTS, published 2005).

Assay [1] concerns the target T1, C. difficile toxin A (Clostridium difficile, UniProt P16154 1-2710). The assay can be described thus: SPR (Biacore), antibody on protein A-coated chip, toxin A flowed over. (Surface plasmon resonance follows binding to a sensor surface in real time, without labels.)
The target in assay [2] is T1, C. difficile toxin A. The assay can be described thus: ELISA, 1 ug/ml Toxin A coat, O.D. 405 nm, four-parameter fit. In general terms: In an ELISA, binding on a coated surface is turned into a signal by an enzyme label.
The target in assay [3] is toxin A subfragment amino acids 660-920 (Clostridium difficile, UniProt P16154 660-920). The assay can be described thus: western blot on toxin A subfragments. In general terms: Immunoblotting shows a protein as a band on a membrane.
Assay [4] deals with toxin A subfragment amino acids 660-807 (Clostridium difficile, UniProt P16154 660-807). The assay can be described thus: western blot on toxin A subfragments.
The target in assay [5] is toxin A subfragment amino acids 1-415 (Clostridium difficile, UniProt P16154 1-415). The experiment in a line: western blot on toxin A subfragments.
The target of assay [6] is toxin A subfragment amino acids 1-290 (Clostridium difficile, UniProt P16154 1-290). The experiment in a line: western blot on toxin A subfragments.
Assay [7] has as its target toxin A subfragment amino acids 1-165 (Clostridium difficile, UniProt P16154 1-165). The assay can be described thus: western blot on toxin A subfragments.
In assay [8] the target is T1, C. difficile toxin A. The experiment in a line: ELISA, 1 ug/ml Toxin A coat, O.D. 405 nm.

Residue numbers refer to the chain shown, from its start.

B1: human monoclonal antibody produced by hybridoma clone 3D8 (antibody, V domains shown)
VH: QVQLVESGGGVVQPGRSLRLSCAASGFSFSNYGMHWVRQAPGKGLEWVALIWYDGSNEDYTDSVKGRFTISRDNSKNTLYLQMNSLRAEDTAVYYCARWGMVRGVIDVFDIWGQGTVVTVSS
VL: DIQMTQSPSSVSASVGDRVTITCRASQGISSWLAWYQHKPGKAPKLLIYAASSLQSGVPSRFSGSGSGTDFTLTISSLQPEDFATYYCQQANSFPWTFGQGTKVEIK
notes: also called HuMAb 3D8
A word on the Kd: it is the equilibrium constant for the complex coming apart. A lower Kd goes with higher affinity. One may read the EC50 as the concentration at which the effect is half-maximal. The molecule B1 showed a Kd with C. difficile toxin A [1] of 1.46 nM. In the assay with C. difficile toxin A [2], the “A (lower asymptote of the four-parameter fit)” value is 0.173 O.D. 405 nm, the “D (upper asymptote of the four-parameter fit)” value was found to be 3.66 O.D. 405 nm and the half-maximal effective concentration (EC50) worked out at 4 ng/mL.

B2: human monoclonal antibody produced by hybridoma clone 33.3H2 (antibody, V domains shown)
VH: QVQLVESGGGVVQPGRSLRLSCAASGFTFNKYGMHWVRQAPGKGLEWVAVIWYDGTNKYYADSMKGRFTISRDNSKNMLYLQMNSLRAEDTAVYYCARDPPTANYWGQGTLVTVSS
VL: B1 VL with V11L, H38Q, G41E, L46S, A91Y, N92K, F94Y, W96V, Q100G
On to B2, for which the binding result in assay [3] is recorded as “no binding”. Besides, in assay [4], the binding result is “no binding”. In addition, in the assay with C. difficile toxin A [2], the “A (lower asymptote of the four-parameter fit)” value is 0.172 O.D. 405 nm, the “D (upper asymptote of the four-parameter fit)” value was 3.7 O.D. 405 nm and the EC50 turned out to be 5 ng/mL.

B3: human monoclonal antibody produced by hybridoma clone 1B11 (antibody, V domains shown)
VH: QMQLVESGGGVVQPGRSLRLSCEASGFSFNSYGMHWVRQAPGKGLEWVSVIWASGNKKYYIESVEGRFTISRDNSKNTLYLQMNSLRAEDTAVYYCARANFDYWGQGTLVTVSS
VL: EIVLTQSPATLSLSPGERATLSCRASQSVSSYLAWYQQKPGQAPRLLIYDASNRATGIPARFSGSGSGTDFTLTISSLEPEDFAVYYCQQRSNWSQFTFGPGTKVDIK
notes: also called HuMAb 1B11
As a reminder, the EC50 (read off the curve) is the concentration at which the effect is half-maximal. For B3, the binding result in assay [5] is given as “no binding”. The binding result in assay [6] is recorded as “no binding”. The binding result in assay [7] is listed as “no binding”. Besides, the “EC50 (read off the curve)” value with C. difficile toxin A [8] is about 2 ng/mL. The same molecule came in with a Kd with C. difficile toxin A [1] of 0.738 nM. Moreover, in the assay with C. difficile toxin A [2], the “A (lower asymptote of the four-parameter fit)” value came out at 0.203 O.D. 405 nm, the “D (upper asymptote of the four-parameter fit)” value is 3.58 O.D. 405 nm and the EC50 was found to be 2 ng/mL.
